Test results as given in US20250361288A1 (Gilead, published 2025).
Numbering of substitutions follows the chain as printed. In names and notes the source's numbering stands. Read-outs that look alike come from different tables or passages of the source.

B1: LIGHT-60 (ligand)
chain: DGPAGSWEQLIQERRSHEVNPAAHLTGANSSLTGSGGPLLWETQLGLAFLRGLSYHDGALVVTKAGYYYIYSKVQLGGVGCPLGLAGGITHGLYKRTPRYPEELELLVSQQSPCGRATSSSRVWWDSSFLGGVVHLEAGEKVVVRVSDSRLVRLRDGTRSYFGAFMV
notes: Printed mutations: S160G, T161G, L220S, E222S; Soluble protein carries an N-terminal His tag
B2: LIGHT-35 (ligand)
chain: B1 chain with G87S, G88S, S149N
notes: Printed mutations: T161S, L220S, E222N; Soluble protein carries an N-terminal His tag
B3: LIGHT-39 (ligand)
chain: B1 chain with L85P, G87S, G88T, L93M, S147M, S149E
notes: Printed mutations: L158P, L166M, L220M; Soluble protein carries an N-terminal His tag
B4: LIGHT-29 (ligand)
chain: B1 chain with G87N, G88T, S149E
notes: Printed mutations: S160N, L220S; Soluble protein carries an N-terminal His tag
B5: LIGHT-42 (ligand)
chain: B1 chain with G77R, G87S, G88T, S149E
notes: Printed mutations: G150R, L220S; Soluble protein carries an N-terminal His tag
B6: LIGHT-28 (ligand)
chain: B1 chain with G87N, G88T, K141E, S147L, S149E, L154M
notes: Printed mutations: S160N, K214E, L227M; Soluble protein carries an N-terminal His tag
B7: LIGHT-25 (ligand)
chain: B1 chain with G87H, G88T, S149E
notes: Printed mutations: S160H, L220S; Soluble protein carries an N-terminal His tag
B8: LIGHT-26 (ligand)
chain: B1 chain with G87H, G88T, S149Q
notes: Printed mutations: S160H, L220S, E222Q; Soluble protein carries an N-terminal His tag
B9: LIGHT-37 (ligand)
chain: B1 chain with G87S, G88T, A117T, F129Y, K141E, S147L, S149E
notes: Printed mutations: A190T, F202Y, K214E; Soluble protein carries an N-terminal His tag
B10: LIGHT-89 (ligand)
chain: B1 chain with A22T, G77R, G87R, G88T, P101L, W125Q, S147L, S149E, R155L
notes: Soluble protein carries an N-terminal His tag
B11: LIGHT-88 (ligand)
chain: B1 chain with A22T, G77R, G87R, G88T, P101L, W125Q, S149E, R155L
notes: Printed mutations: A95T, G150R, S160R, P174L, W198Q, L220S, R228L; Soluble protein carries an N-terminal His tag
B12: LIGHT-31 (ligand)
chain: B1 chain with G87R, G88S, S149E
notes: Printed mutations: S160R, T161S, L220S; Soluble protein carries an N-terminal His tag
B13: LIGHT-90 (ligand)
chain: B1 chain with S147T
notes: Printed mutations: S160G, T161G, L220T, E222S; Soluble protein carries an N-terminal His tag

Assays:
[1] = biological target: T1, mouse LTβR extracellular domain fused with an Fc fragment at the C-terminus (mouse, UniProt P50284 31-223); assay: ELISA on coated target-Fc
T1 construct: extracellular domain; Bought; also called mLTβR; not shown: Fc fragment at the C-terminus
T1 sequence (P50284 31-223): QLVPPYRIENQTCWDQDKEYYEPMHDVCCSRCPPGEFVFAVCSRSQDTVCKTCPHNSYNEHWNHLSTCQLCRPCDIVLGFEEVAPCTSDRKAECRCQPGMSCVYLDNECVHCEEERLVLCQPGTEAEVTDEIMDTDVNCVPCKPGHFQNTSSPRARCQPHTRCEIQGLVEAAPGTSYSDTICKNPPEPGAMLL
Description: (§1) Nunc MaxiSorp 96-well plates (Thermofisher) were coated with target proteins (1 μg/ml), and then blocked with 2% BSA-PBS buffer for one hour. Serial dilutions of the LIGHT muteins were added with a maximum concentration of 200 ng/ml. The plates were incubated for one hour, washed four times with PBST, and then incubated with mouse anti-His tag antibody (#105327, Sino Biological) for 1 hour. The plates were further incubated with HRP-conjugated goat anti-mouse secondary antibody (#SSA006, Sino Biological) before being washed three times with PBST and treated with TMB substrate (#34029, ThermoFisher). The plates were read at 450 nm on a SpectraMax M5 microplate reader (Molecule Devices). The ELISA results were analyzed using GraphPad Prism 9.0 software and the EC50s (half maximal effective concentration) were summarized in Table 5-1 and Table 5-2.

[2] = biological target: T2, human HVEM extracellular domain fused with an Fc fragment at the C-terminus (human, UniProt Q92956 39-202); assay: ELISA on coated target-Fc
T2 construct: extracellular domain; Bought; also called hHVEM; not shown: Fc fragment at the C-terminus
T2 sequence (looked up): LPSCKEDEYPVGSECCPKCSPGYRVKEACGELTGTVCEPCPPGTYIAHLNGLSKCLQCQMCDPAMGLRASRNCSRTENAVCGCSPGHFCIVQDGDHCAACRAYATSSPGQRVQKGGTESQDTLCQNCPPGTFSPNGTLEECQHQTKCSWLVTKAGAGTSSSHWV
Description: as §1

[3] = biological target: T3, human LTβR extracellular domain fused with an Fc fragment at the C-terminus (human, UniProt P36941 31-227); assay: ELISA on coated target-Fc
T3 construct: extracellular domain; Bought; also called hLTβR; not shown: Fc fragment at the C-terminus
T3 sequence (P36941 31-227): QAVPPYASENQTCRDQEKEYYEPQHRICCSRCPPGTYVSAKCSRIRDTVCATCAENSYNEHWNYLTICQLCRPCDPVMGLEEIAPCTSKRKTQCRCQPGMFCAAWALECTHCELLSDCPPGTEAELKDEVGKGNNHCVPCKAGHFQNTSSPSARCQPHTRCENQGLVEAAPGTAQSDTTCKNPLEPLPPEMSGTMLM
Description: as §1

[4] = biological target: T4, recombinant DcR3 protein (human DcR3 residues 33-300 linked to the N-terminal of rabbit Fc) (human, UniProt O95407 33-300); assay: ELISA on coated DcR3-rabbit Fc
T4 construct: range 33-300; Expressed in Expi293F, purified on protein A; not shown: rabbit Fc
T4 sequence (looked up): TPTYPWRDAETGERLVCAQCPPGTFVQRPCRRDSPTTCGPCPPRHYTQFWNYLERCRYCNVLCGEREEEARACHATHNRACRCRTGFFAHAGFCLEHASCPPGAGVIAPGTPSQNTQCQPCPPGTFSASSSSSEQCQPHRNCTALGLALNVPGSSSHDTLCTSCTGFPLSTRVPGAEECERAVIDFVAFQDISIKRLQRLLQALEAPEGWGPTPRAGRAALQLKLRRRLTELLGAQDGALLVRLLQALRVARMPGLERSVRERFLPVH
Description: To test whether the muteins can bind to DcR3, the recombinant DcR3 protein was generated by linking human DcR3 residues 33-300 to the N-terminal of rabbit Fc. The recombinant proteins were expressed in Expi293F and affinity-purified using protein A beads, as previously described. Human DcR3 proteins were immobilized onto maxiSorp 96-well ELISA plates (Thermo Fisher) at a concentration of 0.5 μg/mL and then blocked with 2% BSA-PBS buffer for one hour. The LIGHT variants were added to the plates at various dilutions, with a maximum concentration of 10 nM. The plates were incubated for one hour, washed four times with PBST, and then incubated with mouse anti-His tag antibody (#105327, Sino Biological) for 1 hour. The plates were further incubated with HRP-conjugated goat anti-mouse secondary antibody (#SSA006, Sino Biological) before being washed three times with PBST and treated with TMB substrate (#34029, ThermoFisher). The plates were read at 450 nm on a SpectraMax M5 microplate reader (Molecule Devices). The ELISA results were analyzed using GraphPad Prism 9.0 software and the EC50s (half maximal effective concentration) were summarized in Table 5-2.

[5] = biological target: T1, mouse LTβR extracellular domain fused …; assay: ELISA on coated target-Fc; remark: listed apart in the source
Description: as §1

[6] = biological target: T2, human HVEM extracellular domain fused …; assay: ELISA on coated target-Fc; remark: listed apart in the source
Description: as §1

[7] = biological target: T3, human LTβR extracellular domain fused …; assay: ELISA on coated target-Fc; remark: listed apart in the source
Description: as §1

[8] = biological target: T5, mouse HVEM extracellular domain fused with an Fc fragment at the C-terminus (mouse, UniProt Q80WM9 39-206, limits assumed); assay: phage ELISA
T5 construct: extracellular domain; Bought; also called mHVEM; not shown: Fc fragment at the C-terminus
T5 sequence (looked up): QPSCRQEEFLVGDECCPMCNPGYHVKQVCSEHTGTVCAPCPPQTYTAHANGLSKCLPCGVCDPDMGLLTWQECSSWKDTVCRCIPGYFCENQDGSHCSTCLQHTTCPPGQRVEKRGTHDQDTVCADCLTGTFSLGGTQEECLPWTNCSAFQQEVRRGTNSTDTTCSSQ
Summary of the method: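 Supernatants from fourth-round clones rescued with helper phage were applied to plates coated with 1 μg/ml target for 1 h at room temperature. Bound phage detected with HRP anti-M13 and TMB at OD450; clones were called positive when the target/BSA ratio was >3.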

Binder	EC50 [1] [pM]	EC50 [2] [pM]	EC50 [3] [pM]	EC50 [4] [pM]	EC50 [5] [µg/mL]	EC50 [6] [µg/mL]	EC50 [7] [µg/mL]	binding result [8]	binding result [7]
B1	630	639	919	311					
B2					0.0383	0.0416	0.0703	binds	
B3					0.0239	0.049	0.0542	binds	
B4					0.0209	0.0428	0.0452	binds	
B5					0.025	0.0814	0.0639	binds	
B6					0.256	0.0873	0.0811	binds	
B7					0.0323	0.0542		binds	binds
B8					0.0483	0.0484	0.0727	binds	
B9					0.0678	0.037	0.0434	binds	
B10	503		625						
B11	262		264						
B12					0.0747	0.051	0.0867	binds	
B13	978	2120	1780	692					
